Values belong to the binder of their own block, whether it stands above or below them.
What was measured:
[1] = target: T1, GPC3 on liver cancer cells (HepG2, HuH-7) (UniProt P51654 25-554); test: flow cytometry on HepG2 cells, Alexa Fluor 488 anti-human IgG; table under the plot prints no unit, unit taken from the axis Con.(nM)
T1 construct: whole, on cells; also called GPC3 antigen

[2] = target: CD47 on CD47-transfected CHO-K1 cells (Homo sapiens (Human), UniProt Q08722 19-323); test: flow cytometry on CD47-transfected CHO-K1 cells (CD38-/CD47+), anti-human IgG-FITC detection
[3] = target: T2, IL12 receptors on H_IL12 Reporter 293 cells (UniProt P42701 24-662; Q99665 24-862, limits assumed); test: cell-based or functional assay
[4] = target: T2, IL12 receptors on H_IL12 Reporter 293 …; test: cell-based or functional assay; remark: listed apart in the source

T2 sequence (Q99665 24-862 limits assumed, chain 2 of 2, other chains not shown): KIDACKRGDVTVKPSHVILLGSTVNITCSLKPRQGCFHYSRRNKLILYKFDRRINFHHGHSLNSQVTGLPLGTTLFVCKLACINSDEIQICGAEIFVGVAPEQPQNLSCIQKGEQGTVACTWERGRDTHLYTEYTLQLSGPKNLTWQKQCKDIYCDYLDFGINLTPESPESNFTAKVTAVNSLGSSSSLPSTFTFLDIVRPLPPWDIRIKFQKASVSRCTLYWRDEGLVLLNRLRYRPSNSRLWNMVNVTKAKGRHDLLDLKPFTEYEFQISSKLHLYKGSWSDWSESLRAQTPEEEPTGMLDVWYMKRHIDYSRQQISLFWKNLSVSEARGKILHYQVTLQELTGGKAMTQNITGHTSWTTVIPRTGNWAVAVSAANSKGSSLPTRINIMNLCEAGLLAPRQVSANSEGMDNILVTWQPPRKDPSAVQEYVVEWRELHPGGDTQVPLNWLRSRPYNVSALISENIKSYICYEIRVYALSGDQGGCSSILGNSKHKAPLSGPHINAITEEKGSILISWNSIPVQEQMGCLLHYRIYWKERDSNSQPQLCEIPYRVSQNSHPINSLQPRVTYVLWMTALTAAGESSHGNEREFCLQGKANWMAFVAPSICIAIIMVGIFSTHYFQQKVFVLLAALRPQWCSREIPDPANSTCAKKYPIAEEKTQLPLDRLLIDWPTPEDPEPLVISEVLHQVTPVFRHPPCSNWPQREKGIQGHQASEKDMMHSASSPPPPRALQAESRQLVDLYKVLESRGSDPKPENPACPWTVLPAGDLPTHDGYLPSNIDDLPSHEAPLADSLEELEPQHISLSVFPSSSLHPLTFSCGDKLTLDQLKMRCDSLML

EC50 [1]: 0.529 nM
B1: Anti-GPC3 monoclonal antibody codrituzumab (antibody, human IgG1, kappa, V domains shown)
VH: QVQLVQSGAEVKKPGASVKVSCKASGYTFTDYEMHWVRQAPGQGLEWMGALDPKTGDTAYSQKFKGRVTLTADKSTSTAYMELSSLTSEDTAVYYCTRFYSYTYWGQGTLVTVSS
VL: DVVMTQSPLSLPVTPGEPASISCRSSQSLVHSNRNTYLHWYLQKPGQSPQLLIYKVSNRFSGVPDRFSGSGSGTDFTLKISRVEAEDVGVYYCSQNTHVPPTFGQGTKLEIKR
notes: also called GC33; anti-GPC3 mAb

binding result [2]: no binding
B2: Anti-CD38 monoclonal antibody Felzartamab (antibody, human IgG1, lambda, V domains shown)
VH: QVQLVESGGGLVQPGGSLRLSCAASGFTFSSYYMNWVRQAPGKGLEWVSGISGDPSNTYYADSVKGRFTISRDNSKNTLYLQMNSLRAEDTAVYYCARDLPLVYTGFAYWGQGTLVTVSS
VL: DIELTQPPSVSVAPGQTARISCSGDNLRHYYVYWYQQKPGQAPVLVIYGDSKRPSGIPERFSGSNSGNTATLTISGTQAEDEADYYCQTYTGGASLVFGGGTKLTVLG

EC50 (read off the curve), H_IL12 Reporter 293 cells, One-Glo signal, LCB-018 with IL12B after isotype pre-incubation (TIGIT free) [3]: ~4 nM
EC50 (read off the curve), H_IL12 Reporter 293 cells, One-Glo signal, LCB-018 with IL12B after pre-block of TIGIT with 200 nM Tiragolumab [3]: ~10 nM
EC50 on H_IL12 Reporter 293 cells (One-Glo signal; called binding affinity by the filing) [4]: 30 nM
fold weaker than the IL12A and IL12B complex on H_IL12 Reporter 293 cells [4]: ~500 times
B3: LCB-018 (bispecific antibody)
heavy: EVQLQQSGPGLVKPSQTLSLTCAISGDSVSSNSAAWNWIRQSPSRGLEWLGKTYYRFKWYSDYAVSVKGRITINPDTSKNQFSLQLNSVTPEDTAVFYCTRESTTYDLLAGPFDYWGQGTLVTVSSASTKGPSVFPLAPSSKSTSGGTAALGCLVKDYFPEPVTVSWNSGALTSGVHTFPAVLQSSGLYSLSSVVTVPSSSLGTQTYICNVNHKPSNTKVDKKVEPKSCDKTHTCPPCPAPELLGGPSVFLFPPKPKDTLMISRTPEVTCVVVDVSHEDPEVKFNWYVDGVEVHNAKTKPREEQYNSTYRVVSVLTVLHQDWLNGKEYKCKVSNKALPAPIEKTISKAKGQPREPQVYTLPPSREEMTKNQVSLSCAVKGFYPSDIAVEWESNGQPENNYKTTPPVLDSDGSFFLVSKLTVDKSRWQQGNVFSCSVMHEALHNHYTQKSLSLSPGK
chain 1: not shown
chain 2: WELKKDVYVVELDWYPDAPGEMVVLTCDTPEEDGITWTLDQSSEVLGSGKTLTIQVKEFGDAGQYTCHKGGEVLSHSLLLLHKKEDGIWSTDILKDQKEPKNKTFLRCEAKNYSGRFTCWWLTTISTDLTFSVKSSRGSSDPQGVTCGAATLSAERVRGDNKEYEYSVECQEDSACPAAEESLPIEVMVDAVHKLKYENYTSSFFIRDIIKPDPPKNLQLKPLKNSRQVEVSWEYPDTWSTPHSYFSLTFCVQVQGKSKREKKDRVFTDKTSATVICRKNASISVRAQDRYYSSSWSEWASVPCS
